One series deals with T1, CN1CCC[C@H]1c1cccnc1.
T1 construct: full-length, C-terminal His6 tag kept, expressed in E. coli, purified, 52 kDa on SDS-PAGE; FAD enzyme
Nature of the series: residual nicotine by GC; progress curves fitted in KinTek, Km derived from kcat/Km and kcat. The format is biochemical, Pseudomonas putida. Particulars: rat serum, 37 °C, 250 nM (40 ng/mL) nicotine, O2 as oxidant. From the text:
(§1) residual nicotine by GC; progress curves fitted in KinTek, Km derived from kcat/Km and kcat on wt NicA2

Substrate in series [1]: CN1CCC[C@H]1c1cccnc1
The description is as above. Particulars: rat serum, 37 °C, 250 nM (40 ng/mL) nicotine, O2 as oxidant. Type of series: biochemical, Pseudomonas putida.
From the text: as §1

The Km is the substrate concentration at which the rate is half of its maximum. A word on the kcat: it is the number of substrate molecules converted per active site and unit of time at saturation. One may read the kcat/Km as the turnover number divided by the Michaelis constant. In the case of “wt NicA2 (Pseudomonas putida S16; A107G)”, in the series with CN1CCC[C@H]1c1cccnc1, the Km is 0.335 µM, the turnover number (kcat) was determined as 0.053 s⁻¹ and the kcat/Km worked out at 160000 M⁻¹ s⁻¹.
For “wt NicA2 (Pseudomonas putida S16; A107R)” the same measures were 0.83 µM, 0.159 s⁻¹ and 190000 M⁻¹ s⁻¹.
The matching figures for “wt NicA2 (Pseudomonas putida S16; A107T)”: 0.285 µM, 0.05 s⁻¹ and 180000 M⁻¹ s⁻¹.
The matching figures for “wt NicA2 (Pseudomonas putida S16; A426C)”: 0.23 µM, 0.03 s⁻¹ and 130000 M⁻¹ s⁻¹.
Take “wt NicA2 (Pseudomonas putida S16; F104I)”: in the series on CN1CCC[C@H]1c1cccnc1, the Km came out at 0.24 µM, the kcat turned out to be 0.039 s⁻¹ and the kcat/Km is 160000 M⁻¹ s⁻¹.
The matching figures for “wt NicA2 (Pseudomonas putida S16; F104R)”: 0.27 µM, 0.041 s⁻¹ and 150000 M⁻¹ s⁻¹.
For the molecule “wt NicA2 (Pseudomonas putida S16; F104S)”, in the series with CN1CCC[C@H]1c1cccnc1, the Km worked out at 0.25 µM, the catalytic constant (kcat) is 0.031 s⁻¹ and the kcat/Km amounted to 130000 M⁻¹ s⁻¹.
For “wt NicA2 (Pseudomonas putida S16; F104T)” the same measures were 0.33 µM, 0.055 s⁻¹ and 170000 M⁻¹ s⁻¹.
The matching figures for “wt NicA2 (Pseudomonas putida S16; F355H)”: 0.22 µM, 0.029 s⁻¹ and 130000 M⁻¹ s⁻¹.
With “wt NicA2 (Pseudomonas putida S16; G106A)”, in the series with CN1CCC[C@H]1c1cccnc1, the Michaelis constant (Km) was found to be 0.28 µM, the kcat amounted to 0.031 s⁻¹ and the kcat/Km is 110000 M⁻¹ s⁻¹.

B1: wt NicA2 (Pseudomonas putida S16) (protein)
chain: MSDKTKTNEGFSRRSFIGSAAVVTAGVAGLGAIDAASATQKTNRASTVKGGFDYDVVVVGGGFAGATAARECGLQGYRTLLLEARSRLGGRTFTSRFAGQEIEFGGAWVHWLQPHVWAEMQRYGLGVVEDPLTNLDKTLIMYNDGSVESISPDEFGKNIRIAFEKLCHDAWEVFPRPHEPMFTERARELDKSSVLDRIKTLGLSRLQQAQINSYMALYAGETTDKFGLPGVLKLFACGGWNYDAFMDTETHYRIQGGTIGLINAMLTDSGAEVRMSVPVTAVEQVNGGVKIKTDDDEIITAGVVVMTVPLNTYKHIGFTPALSKGKQRFIKEGQLSKGAKLYVHVKQNLGRVFAFADEQQPLNWVQTHDYSDELGTILSITIARKETIDVNDRDAVTREVQKMFPGVEVLGTAAYDWTADPFSLGAWAAYGVGQLSRLKDLQAAEGRILFAGAETSNGWHANIDGAVESGLRAGREVKQLLS
notes: full-length, C-terminal His6 tag kept, expressed in E. coli, purified, 52 kDa on SDS-PAGE; FAD enzyme
In the case of B1, in series [1], the Michaelis constant (Km) was determined as 0.24 µM, the catalytic constant (kcat) worked out at 0.015 s⁻¹ and the catalytic efficiency (kcat/Km) was found to be 64000 M⁻¹ s⁻¹.

The values above are taken from publication PMC6679477, “Optimization of a nicotine degrading enzyme for potential use in treatment of nicotine addiction” (BMC Biotechnology, 2019).
